Results published in EP4711384A1 (WIO Bioscience Co., Ltd., dated 2026).
Positions count from the first letter of the chain named. Values joined by “and” are separate entries in the source; they are usually repeats but may differ in a detail not shown here. Equal values may be shown once.

T1: human IL-18R1 and IL-18RAP on IL-18 Reporter HEK 293 Cells (human, UniProt Q13478 19-541; O95256 20-599)
T1 sequence (looked up) 1: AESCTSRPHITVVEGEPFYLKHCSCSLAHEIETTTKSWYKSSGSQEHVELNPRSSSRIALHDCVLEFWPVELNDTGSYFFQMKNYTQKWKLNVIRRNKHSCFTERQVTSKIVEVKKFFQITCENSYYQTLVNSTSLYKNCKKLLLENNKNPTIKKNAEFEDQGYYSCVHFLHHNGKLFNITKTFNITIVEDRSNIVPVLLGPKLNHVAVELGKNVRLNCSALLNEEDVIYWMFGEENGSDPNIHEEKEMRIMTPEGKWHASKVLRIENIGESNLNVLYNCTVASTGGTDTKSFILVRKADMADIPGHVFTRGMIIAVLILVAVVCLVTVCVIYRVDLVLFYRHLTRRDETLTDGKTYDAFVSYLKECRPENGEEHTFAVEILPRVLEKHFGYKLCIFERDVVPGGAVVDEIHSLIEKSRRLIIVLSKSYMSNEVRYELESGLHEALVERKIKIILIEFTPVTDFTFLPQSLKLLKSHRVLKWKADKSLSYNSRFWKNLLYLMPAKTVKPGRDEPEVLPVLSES
T1 sequence (looked up) 2: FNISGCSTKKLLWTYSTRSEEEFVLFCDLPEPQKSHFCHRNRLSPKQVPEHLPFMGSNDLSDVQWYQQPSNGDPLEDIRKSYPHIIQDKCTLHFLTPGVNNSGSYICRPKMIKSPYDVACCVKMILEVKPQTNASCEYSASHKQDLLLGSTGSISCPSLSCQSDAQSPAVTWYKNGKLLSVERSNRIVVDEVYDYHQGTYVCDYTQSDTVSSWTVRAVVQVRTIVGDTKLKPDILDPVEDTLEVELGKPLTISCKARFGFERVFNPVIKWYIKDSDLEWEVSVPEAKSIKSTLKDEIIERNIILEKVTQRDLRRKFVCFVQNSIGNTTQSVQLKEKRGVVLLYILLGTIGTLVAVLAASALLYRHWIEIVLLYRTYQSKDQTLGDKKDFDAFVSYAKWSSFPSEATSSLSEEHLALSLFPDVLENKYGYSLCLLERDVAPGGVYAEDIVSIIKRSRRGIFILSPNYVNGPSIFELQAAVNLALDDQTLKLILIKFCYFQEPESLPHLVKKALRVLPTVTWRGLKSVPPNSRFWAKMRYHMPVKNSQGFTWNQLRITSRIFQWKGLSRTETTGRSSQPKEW

B1: hzWio-02-09 (His form) (bispecific antibody)
chain: EVQLVESGGGLVQPGGSLRLSCAASGSTFDEYDMGWYRQAPGGKCELVSTISTIDASTYYADSVKGRFTISRDNSKNTLYLQMNSLRAEDTAVYYCEADDRGTWDRGGCWGQGTLVTVSSGGGGSEVQLVESGGGLVQPGGSLRLSCAASGFTYIPAYMGWFRQAPGKERERVASIKTDASTTYADSVEGRFTISQDNAKNTLYLQMNSLRPEDTAVYYCAAYQFGAFRVWGQGTLVTVSSHHHHHH
B2: hzWio-02-03-His (bispecific antibody)
chain: EVQLVESGGGLVQPGGSLRLSCAASGNLYRDPCMGWFRQAPGKDREGVAAMNTGADSTFYARSVKGRFTISRDNAKNTLYLQMNSLRAEDTAVYYCAASRYCTERTYTWRYDYDYWGQGTLVTVSSGGGGSEVQLVESGGGLVQPGGSLRLSCAASGFTYIPAYMGWFRQAPGKERERVASIKTDASTTYADSVEGRFTISQDNAKNTLYLQMNSLRPEDTAVYYCAAYQFGAFRVWGQGTLVTVSSHHHHHH
B3: hzWio-02-05-His (bispecific antibody)
chain: EVQLVESGGGLVQPGGSLRLSCAASGNLYRDPCMGWFRQAPGKDREGVAAMNTGADSTFYARSVKGRFTISRDNAKNTLYLQMNSLRAEDTAVYYCAASRYCTERTYTWRYDYDYWGQGTLVTVSSGGGGSEVQLVESGGGLVQPGGSLRLSCAASGFTYIPAYMGWFRQAPGKERERVASISSTEGSTTYADSVKGRFTISQDNSKNTLYLQMNSLRPEDTAVYYCAAYQFGAFRVWGQGTLVTVSSHHHHHH
B4: hzWio-02-01-Hm1 (bispecific antibody)
chain: EVQLVESGGGLVQPGGSLRLSCAASGHAYDNACMGWFRQAPGKEREGVASIHLRDRTYYADSVKGRFTISRDNSKNTLYLQMNSLRAEDTAVYYCASSNICNALNLQGNTYWGQGTLVTVSSGGGGSEVQLLESGGGLVQPGGSLRLSCAASGYTYGPYCMGWFRQAPGKEREGVAAVGGDARTWYGNSVKGRFTISRDNSKNTLYLQMNSLRAEDTAVYYCAADFDRTVCSDDIYDYTYRGQGTLVTVSSHHHHHH
B5: hzWio-02-01-Hm27 (bispecific antibody)
chain: B4 chain with H27T, N102H
B6: hzWio-02-01-Hm17 (bispecific antibody)
chain: B4 chain with H27T, Y59H
B7: hzWio-02-01-Hm24 (bispecific antibody)
chain: B4 chain with H27T, S98H
B8: hzWio-02-01-Hm13 (bispecific antibody)
chain: B4 chain with H27T, D55H
B9: hzWio-02-01-Hm5 (bispecific antibody)
chain: B4 chain with H27T, N31H
B10: hzWio-02-01-Hm30 (bispecific antibody)
chain: B4 chain with H27T, N105H
B11: hzWio-02-01-Hm25 (bispecific antibody)
chain: B4 chain with H27T, N99H
B12: hzWio-02-01-Hm7 (bispecific antibody)
chain: B4 chain with H27T, M34H
B13: hzWio-02-01-Hm23 (bispecific antibody)
chain: B4 chain with H27T, G65H
B14: hzWio-02-01-Hm29 (bispecific antibody)
chain: B4 chain with H27T, L104H
B15: hzWio-02-01-Hm26 (bispecific antibody)
chain: B4 chain with H27T, I100H
B16: hzWio-02-01-Hm14 (bispecific antibody)
chain: B4 chain with H27T, R56H
B17: hzWio-02-01-Hm22 (bispecific antibody)
chain: B4 chain with H27T, K64H
B18: hzWio-02-01-Hm8 (bispecific antibody)
chain: B4 chain with H27T, G35H
B19: hzWio-02-01-Hm31 (bispecific antibody)
chain: B4 chain with H27T, L106H
B20: hzWio-02-01-Hm9 (bispecific antibody)
chain: B4 chain with H27T, S50H
B21: hzWio-02-01-Hm18 (bispecific antibody)
chain: B4 chain with H27T, A60H
B22: hzWio-02-01-Hm20 (bispecific antibody)
chain: B4 chain with H27T, S62H
B23: hzWio-02-01-Hm32 (bispecific antibody)
chain: B4 chain with H27T, Q107H
B24: hzWio-02-01-Hm16 (bispecific antibody)
chain: B4 chain with H27T, Y58H
B25: hzWio-02-01-Hm21 (bispecific antibody)
chain: B4 chain with H27T, V63H
B26: hzWio-02-01-Hm6 (bispecific antibody)
chain: B4 chain with H27T, A32H
B27: hzWio-02-01-Hm15 (bispecific antibody)
chain: B4 chain with H27T, T57H
B28: hzWio-02-01-Hm19 (bispecific antibody)
chain: B4 chain with H27T, D61H
B29: hzWio-02-01-Hm33 (bispecific antibody)
chain: B4 chain with H27T, G108H
B30: hzWio-02-01-Hm11 (bispecific antibody)
chain: B4 chain with H27T, L53H
B31: hzWio-02-01-Hm2 (bispecific antibody)
chain: B4 chain with H27T, A28H
B32: hzWio-02-01-Hm3 (bispecific antibody)
chain: B4 chain with H27T, Y29H
B33: hzWio-02-01-Hm34 (bispecific antibody)
chain: B4 chain with H27T, N109H
B34: hzWio-02-01-Hm12 (bispecific antibody)
chain: B4 chain with H27T, R54H
B35: hzWio-02-01-Hm28 (bispecific antibody)
chain: B4 chain with H27T, A103H
B36: hzWio-02-01-Hm35 (bispecific antibody)
chain: B4 chain with H27T, T110H
B37: hzWio-02-01-Hm10 (bispecific antibody)
chain: B4 chain with H27T, I51H
B38: hzWio-02-01-Hm4 (bispecific antibody)
chain: B4 chain with H27T, D30H

What follows are binders tested against T1, human IL-18R1 and IL-18RAP on IL-18 … (assay: cell-based or functional assay).

| Binder | EC50 [ng/mL] | Top630nm |
| --- | --- | --- |
| B1 | 0.668 | 1.88 |
| B2 | 0.394 | 1.82 |
| B3 | 0.201 | 1.72 |

Biological target: T1, human IL-18R1 and IL-18RAP on IL-18 …
Test: cell-based or functional assay
Remark: another data set of the same source

| Binder | EC50 | Top530nm |
| --- | --- | --- |
| B4 | 1.25 ng/mL | 0.909 |
| B5 | 0.433 ng/mL | 0.773 |
| B6 | 1.47 ng/mL | 1 |
| B7 | 1.97 ng/mL | 0.774 |
| B8 | 1.12 ng/mL | 1.22 |
| B9 | 1.11 ng/mL | 1.01 |
| B10 | 28.7 ng/mL | 0.349 |
| B11 | 0.04 ng/mL | 0.738 |
| B12 | 1.12 ng/mL | 1.03 |
| B13 | 0.238 ng/mL | 0.794 |
| B14 | 0.67 ng/mL and 1.49 ng/mL | – |
| B15 | 0.301 ng/mL | 0.764 |
| B16 | 1.26 ng/mL | 1.25 |
| B17 | 0.182 ng/mL | 0.773 |
| B18 | 1.01 ng/mL | 1.51 |
| B19 | 7.75 ng/mL | 1.05 |
| B20 | 2.14 ng/mL | 0.9 |
| B21 | 0.696 ng/mL | 1.07 |

| Binder | EC50 | Top530nm |
| --- | --- | --- |
| B22 | 0.582 ng/mL | 2.75 |
| B23 | 10.9 ng/mL | 1.09 |
| B24 | 1.15 ng/mL | 1.11 |
| B25 | 2.12 ng/mL | 1.12 |
| B26 | 1.08 ng/mL | 0.894 |
| B27 | 1.54 ng/mL | 1.13 |
| B28 | 0.84 ng/mL | 0.738 |
| B29 | 19.5 ng/mL | 1.1 |
| B30 | 1.42 ng/mL | 1.02 |
| B31 | 2.27 ng/mL | 1.1 |
| B32 | 1.14 ng/mL | 1.08 |
| B33 | 12.9 ng/mL | 1 |
| B34 | 0.68 ng/mL | 1.17 |
| B35 | 0.42 ng/mL | 0.821 |
| B36 | 6.99 ng/mL | 1.18 |
| B37 | 1.27 ng/mL | 1.1 |
| B38 | 0.941 ng/mL | 1.08 |
